Experimental data from patent publication US20240299575A1 (DENALI THERAPEUTICS, published 2024).
Where a chain is given by its changes, count along the chain named. Numbers in names are those of the source.

B1: TV variant S239C (RSV Fab-Fc dimer fusion, CH3C.35.23.2 on the knob chain, LALA, S239C on the hole chain) (antibody, human IgG1, kappa, L234A L235A)
light: DIQMTQSPSTLSASVGDRVTITCKCQLSVGYMHWYQQKPGKAPKLLIYDTSKLASGVPSRFSGSGSGTEFTLTISSLQPDDFATYYCFQGSGYPFTFGGGTKLEIKRTVAAPSVFIFPPSDEQLKSGTASVVCLLNNFYPREAKVQWKVDNALQSGNSQESVTEQDSKDSTYSLSSTLTLSKADYEKHKVYACEVTHQGLSSPVTKSFNRGEC
heavy 1: QVTLRESGPALVKPTQTLTLTCTFSGFSLSTSGMSVGWIRQPPGKALEWLADIWWDDKKDYNPSLKSRLTISKDTSKNQVVLKVTNMEPADTATYYCARSMITNWYFDVWGAGTTVTVSSASTKGPSVFPLAPSSKSTSGGTAALGCLVKDYFPEPVTVSWNSGALTSGVHTFPAVLQSSGLYSLSSVVTVPSSSLGTQTYICNVNHKPSNTKVDKKVEPKSCDKTHTCPPCPAPEAAGGPSVFLFPPKPKDTLMISRTPEVTCVVVDVSHEDPEVKFNWYVDGVEVHNAKTKPREEQYNSTYRVVSVLTVLHQDWLNGKEYKCKVSNKALPAPIEKTISKAKGQPREPQVYTLPPSRDELTKNQVSLWCLVKGFYPSDIAVEWESYGTEWANYKTTPPVLDSDGSFFLYSKLTVTKEEWQQGFVFSCSVMHEALHNHYTQKSLSLSPGK
heavy 2: QVTLRESGPALVKPTQTLTLTCTFSGFSLSTSGMSVGWIRQPPGKALEWLADIWWDDKKDYNPSLKSRLTISKDTSKNQVVLKVTNMEPADTATYYCARSMITNWYFDVWGAGTTVTVSSASTKGPSVFPLAPSSKSTSGGTAALGCLVKDYFPEPVTVSWNSGALTSGVHTFPAVLQSSGLYSLSSVVTVPSSSLGTQTYICNVNHKPSNTKVDKKVEPKSCDKTHTCPPCPAPEAAGGPCVFLFPPKPKDTLMISRTPEVTCVVVDVSHEDPEVKFNWYVDGVEVHNAKTKPREEQYNSTYRVVSVLTVLHQDWLNGKEYKCKVSNKALPAPIEKTISKAKGQPREPQVYTLPPSRDELTKNQVSLSCAVKGFYPSDIAVEWESNGQPENNYKTTPPVLDSDGSFFLVSKLTVDKSRWQQGNVFSCSVMHEALHNHYTQKSLSLSPGK
notes: also called S239C (100 nM); S239 variant
B2: TV variant S442C (RSV Fab-Fc dimer fusion, CH3C.35.23.2 on the knob chain, S442C on the hole chain) (antibody, human IgG1, kappa, L234A L235A)
light: B1 light
heavy 1: B1 heavy 1
heavy 2: B1 heavy 2 with C242S, S445C
notes: also called Conjugation site S442C
B3: TV variant OTR2 (RSV Fab-Fc dimer fusion, CH3C.35.23.2 on the knob chain, S239C on both chains) (antibody, human IgG1, kappa, L234A L235A)
light: B1 light
heavy 1: B1 heavy 1 with S242C
heavy 2: B1 heavy 2
notes: also called OTR2 (1.23)
B4: TV variant A330C (RSV Fab-Fc dimer fusion, CH3C.35.23.2 on the knob chain, A330C on the hole chain) (antibody, human IgG1, kappa, L234A L235A)
light: B1 light
heavy 1: B1 heavy 1
heavy 2: B1 heavy 2 with C242S, A333C
notes: also called Conjugation site A330C
B5: TV variant 500 nM low affinity (RSV Fab-Fc dimer fusion, CH3C.35.23.4 on the knob chain, S239C on the hole chain) (antibody, human IgG1, kappa, L234A L235A)
light: B1 light
heavy 1: B1 heavy 1 with A392S, T416S
heavy 2: B1 heavy 2
notes: also called 500 nM variant
B6: TV variant OTR4 (RSV Fab-Fc dimer fusion, CH3C.35.23.2 on the knob chain, S239C and A330C on both chains) (antibody, human IgG1, kappa, L234A L235A)
light: B1 light
heavy 1: B1 heavy 1 with S242C, A333C
heavy 2: B1 heavy 2 with A333C
notes: also called OTR4 (2.5)
B7: TV variant SansFab (Fc polypeptide dimer without Fab, CH3C.35.23.2 on the knob chain, S239C on the hole chain) (designed binder)
chain 1: DKTHTCPPCPAPEAAGGPSVFLFPPKPKDTLMISRTPEVTCVVVDVSHEDPEVKFNWYVDGVEVHNAKTKPREEQYNSTYRVVSVLTVLHQDWLNGKEYKCKVSNKALPAPIEKTISKAKGQPREPQVYTLPPSRDELTKNQVSLWCLVKGFYPSDIAVEWESYGTEWANYKTTPPVLDSDGSFFLYSKLTVTKEEWQQGFVFSCSVMHEALHNHYTQKSLSLSPGK
chain 2: DKTHTCPPCPAPEAAGGPCVFLFPPKPKDTLMISRTPEVTCVVVDVSHEDPEVKFNWYVDGVEVHNAKTKPREEQYNSTYRVVSVLTVLHQDWLNGKEYKCKVSNKALPAPIEKTISKAKGQPREPQVYTLPPSRDELTKNQVSLSCAVKGFYPSDIAVEWESNGQPENNYKTTPPVLDSDGSFFLVSKLTVDKSRWQQGNVFSCSVMHEALHNHYTQKSLSLSPGK
notes: Fc knob-in-hole heterodimer with a portion of the IgG1 hinge and LALA mutations; also called No Fab
B8: TV variant N297G knob (DNP02 Fab-Fc dimer fusion, CH3C.35.23.2 on the knob chain, LALAPG, N297G on the knob chain) (antibody, human IgG1, kappa, L234A L235A, N297G)
light: EIVMTQSPATLSLSPGERATLSCSASSSVSYMYWYQQKPGQAPRLLIYDTSNLASGIPARFSGSGSGTDFTLTISSLQPEDFAVYYCQQWSSYPPITFGQGTKVEIKRTVAAPSVFIFPPSDEQLKSGTASVVCLLNNFYPREAKVQWKVDNALQSGNSQESVTEQDSKDSTYSLSSTLTLSKADYEKHKVYACEVTHQGLSSPVTKSFNRGEC
heavy 1: QVQLQESGPGLVKPSETLSLTCAVSGYSITSDYAWNWIRQPPGKGLEWIGYMSYSGSTRYNPSLRSRVTISVDTSKNQFSLKLSSVTAADTAVYYCARGWPLAYWGQGTLVTVSSASTKGPSVFPLAPSSKSTSGGTAALGCLVKDYFPEPVTVSWNSGALTSGVHTFPAVLQSSGLYSLSSVVTVPSSSLGTQTYICNVNHKPSNTKVDKKVEPKSCDKTHTCPPCPAPEAAGGPSVFLFPPKPKDTLMISRTPEVTCVVVDVSHEDPEVKFNWYVDGVEVHNAKTKPREEQYGSTYRVVSVLTVLHQDWLNGKEYKCKVSNKALGAPIEKTISKAKGQPREPQVYTLPPSRDELTKNQVSLWCLVKGFYPSDIAVEWESYGTEWANYKTTPPVLDSDGSFFLYSKLTVTKEEWQQGFVFSCSVMHEALHNHYTQKSLSLSPGK
heavy 2: QVQLQESGPGLVKPSETLSLTCAVSGYSITSDYAWNWIRQPPGKGLEWIGYMSYSGSTRYNPSLRSRVTISVDTSKNQFSLKLSSVTAADTAVYYCARGWPLAYWGQGTLVTVSSASTKGPSVFPLAPSSKSTSGGTAALGCLVKDYFPEPVTVSWNSGALTSGVHTFPAVLQSSGLYSLSSVVTVPSSSLGTQTYICNVNHKPSNTKVDKKVEPKSCDKTHTCPPCPAPEAAGGPSVFLFPPKPKDTLMISRTPEVTCVVVDVSHEDPEVKFNWYVDGVEVHNAKTKPREEQYNSTYRVVSVLTVLHQDWLNGKEYKCKVSNKALGAPIEKTISKAKGQPREPQVYTLPPSRDELTKNQVSLSCAVKGFYPSDIAVEWESNGQPENNYKTTPPVLDSDGSFFLVSKLTVDKSRWQQGNVFSCSVMHEALHNHYTQKSLSLSPGK
notes: Knob-in-hole heterodimer with non-targeting DNP02 Fabs; also called BTGase Knob
B9: TV variant N297G hole (DNP02 Fab-Fc dimer fusion, CH3C.35.23.2 on the knob chain, LALAPG, N297G on the hole chain) (antibody, human IgG1, kappa, L234A L235A, N297G)
light: B8 light
heavy 1: B8 heavy 1 with G295N
heavy 2: B8 heavy 2 with N295G
notes: Knob-in-hole heterodimer with non-targeting DNP02 Fabs; also called BTGase Hole
B10: TV variant A114C (DNP02 Fab-Fc dimer fusion, CH3C.35.23.2 on the knob chain, LALAPG, A114C (Kabat) on the hole chain) (antibody, human IgG1, kappa, L234A L235A)
light: B8 light
heavy 1: B8 heavy 1 with G295N
heavy 2: B8 heavy 2 with A116C
notes: Knob-in-hole heterodimer with non-targeting DNP02 Fabs
B11: TV variant N297G OTR2 (DNP02 Fab-Fc dimer fusion, CH3C.35.23.2 on the knob chain, LALAPG, N297G on both chains) (antibody, human IgG1, kappa, L234A L235A, N297G)
light: B8 light
heavy 1: B8 heavy 1
heavy 2: B8 heavy 2 with N295G
notes: Knob-in-hole heterodimer with non-targeting DNP02 Fabs; also called BTGase DAR2
B12: TV variant K149C (DNP02 Fab-Fc dimer fusion, CH3C.35.23.2 on the knob chain, LALAPG, K149C on the DNP02 light chain) (antibody, human IgG1, kappa, L234A L235A)
light: B8 light with K149C
heavy 1: B8 heavy 1 with G295N
heavy 2: B8 heavy 2
notes: as for B10
B13: TV variant T289C (DNP02 Fab-Fc dimer fusion, CH3C.35.23.2 on the knob chain, LALAPG, T289C on the hole chain) (antibody, human IgG1, kappa, L234A L235A)
light: B8 light
heavy 1: B8 heavy 1 with G295N
heavy 2: B8 heavy 2 with T287C
notes: as for B10

The binders below were run against T1, Human transferrin receptor protein 1 (TFR1) (human, UniProt P02786 89-760, limits assumed) (assay: column 'Affinity' of the construct table; method not stated).
T1 construct: also called huTfR
T1 sequence (P02786 89-760 limits assumed): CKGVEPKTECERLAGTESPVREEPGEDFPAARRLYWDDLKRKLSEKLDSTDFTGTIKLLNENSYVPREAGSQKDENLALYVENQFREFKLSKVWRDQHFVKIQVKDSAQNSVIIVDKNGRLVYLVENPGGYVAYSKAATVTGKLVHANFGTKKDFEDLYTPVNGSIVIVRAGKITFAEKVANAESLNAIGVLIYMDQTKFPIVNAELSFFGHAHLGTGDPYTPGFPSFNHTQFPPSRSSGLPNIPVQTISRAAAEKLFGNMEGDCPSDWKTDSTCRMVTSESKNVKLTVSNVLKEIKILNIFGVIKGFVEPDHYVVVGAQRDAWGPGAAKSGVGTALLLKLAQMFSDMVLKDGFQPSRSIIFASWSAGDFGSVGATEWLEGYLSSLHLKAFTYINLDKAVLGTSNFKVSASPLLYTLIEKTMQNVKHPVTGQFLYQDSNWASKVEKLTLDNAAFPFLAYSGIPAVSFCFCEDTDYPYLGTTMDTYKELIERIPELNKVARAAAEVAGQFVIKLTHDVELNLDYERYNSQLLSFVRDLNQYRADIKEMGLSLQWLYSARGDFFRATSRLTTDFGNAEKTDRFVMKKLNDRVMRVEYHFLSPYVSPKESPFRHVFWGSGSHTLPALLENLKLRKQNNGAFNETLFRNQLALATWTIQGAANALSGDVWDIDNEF
B1 showed a Kd of 100 nM. Binder B2 has a Kd of 100 nM. Binder B3 has a Kd of 100 nM. Binder B4 has a Kd of 100 nM. B5 showed a Kd of 500 nM. With B6 the Kd was 100 nM. In the case of B7, the Kd is reported as 100 nM.

Biological target: T1, Human transferrin receptor protein 1 …
Assay: as above
Remark: another data set of the same source
B8 showed a Kd of 100 nM. With B9 the Kd was 100 nM. In the case of B10, the Kd is reported as 100 nM. B11 gave a Kd of 100 nM. For B12, the Kd was 100 nM. Work on B13 yielded a Kd of 100 nM.
